The values that follow come from the supplement of paper PMC11246515.

The data set is described as follows: total protein half-life in vivo (active degradation + dilution); higher = more stable protein.
The mark [1] stands for this setting: E. coli NCM3722 delta-clpP, growth: N-lim chemostat, doubling time 6 h.
[2] abbreviates: E. coli NCM3722 delta-hslV, growth: N-lim chemostat, doubling time 6 h.
[3] abbreviates: E. coli NCM3722 delta-lon, growth: N-lim chemostat, doubling time 6 h.
Setting [4] is: E. coli NCM3722 delta-smpB, growth: N-lim chemostat, doubling time 6 h.
The mark [5] stands for this setting: wild type E. coli NCM3722, growth: C-lim chemostat, doubling time 3 h.
The mark [6] stands for this setting: wild type E. coli NCM3722, growth: C-lim chemostat, doubling time 6 h.
Where [7] appears, read: wild type E. coli NCM3722, growth: C-lim chemostat, doubling time 12 h.
Where [8] appears, read: wild type E. coli NCM3722, growth: N-lim chemostat, doubling time 6 h.
[9] abbreviates: wild type E. coli NCM3722, growth: N-lim chemostat, doubling time 12 h.
[10] abbreviates: wild type E. coli NCM3722, growth: P-lim chemostat, doubling time 6 h.
The mark [11] stands for this setting: wild type E. coli NCM3722, growth: P-lim chemostat, doubling time 12 h.
[12] abbreviates: E. coli NCM3722 delta-clpP delta-lon delta-hslV, growth: N-lim chemostat, doubling time 6 h.

± gives the standard deviation of the averaged measurements.

On to “MFHRLWTLIRKELQSLLREPQTRAILILPVLIQVILFPFAATLEVTNATIAIYDEDNGEHSVELTQRFARASAFTHVLLLKSPQEIRPTIDTQKALLLVRFPADFSRKLDTFQTAPLQLILDGRNSNSAQIAANYLQQIVKNYQQELLEGKPKPNNSELVVRNWYNPNLDYKWFVVPSLIAMITTIGVMIVTSLSVAREREQGTLDQLLVSPLTTWQIFIGKAVPALIVATFQATIVLAIGIWAYQIPFAGSLALFYFTMVIYGLSLVGFGLLISSLCSTQQQAFIGVFVFMMPAILLSGYVSPVENMPVWLQNLTWINPIRHFTDITKQIYLKDASLDIVWNSLWPLLVITATTGSAAYAMFRRKVM [P0AFP9]”, for which the “total protein half-life in vivo” value is, setting by setting: under setting [1], 6.75 ± 1.4 h; under setting [2], more than 8 h; under setting [3], 7.11 h; under setting [4], 5.25 ± 0.36 h; under setting [5], 3.51 h; under setting [6], 6.05 ± 0.27 h. Also, the “total protein half-life in vivo” value was 12.97 ± 0.071 h under setting [7], 6.33 ± 0.16 h under setting [8], 12.1 ± 1.1 h under setting [9] and 6.38 h under setting [10].
As for “MATAWYKQVNPPQRKALFSAWLGYVFDGFDFMMIFYILHIIKADLGITDIQATLIGTVAFIARPIGGGFFGAMADKYGRKPMMMWAIFIYSVGTGLSGIATNLYMLAVCRFIVGLGMSGEYACASTYAVESWPKNLQSKASAFLVSGFSVGNIIAAQIIPQFAEVYGWRNSFFIGLLPVLLVLWIRKSAPESQEWIEDKYKDKSTFLSVFRKPHLSISMIVFLVCFCLFGANWPINGLLPSYLADNGVNTVVISTLMTIAGLGTLTGTIFFGFVGDKIGVKKAFVVGLITSFIFLCPLFFISVKNSSLIGLCLFGLMFTNLGIAGLVPKFIYDYFPTKLRGLGTGLIYNLGATGGMAAPVLATYISGYYGLGVSLFIVTVAFSALLILLVGFDIPGKIYKLSVAK”, the “total protein half-life in vivo” value is, setting by setting: under setting [5], 3.16 h; under setting [6], more than 8 h; under setting [7], 9.57 h; under setting [10], 5.55 h; under setting [11], 9.48 ± 2.4 h.
On to “MKHTVEVMIPEAEIKARIAELGRQITERYKDSGSDMVLVGLLRGSFMFMADLCREVQVSHEVDFMTASSYGSGMSTTRDVKILKDLDEDIRGKDVLIVEDIIDSGNTLSKVREILSLREPKSLAICTLLDKPSRREVNVPVEFIGFSIPDEFVVGYGIDYAQRYRHLPYIGKVILLDE [P0A9M2]”, for which the “total protein half-life in vivo” value came out at 4.48 ± 0.22 h under setting [12]; 4.53 ± 0.57 h under setting [1]; 4.14 ± 0.16 h under setting [2]; 5.16 ± 0.72 h under setting [3]; 4.08 ± 0.22 h under setting [4]; 2.88 ± 0.16 h under setting [5]. The “total protein half-life in vivo” value by setting is: under setting [6], 4.78 ± 1.6 h; under setting [7], 9.38 ± 0.47 h; under setting [8], 4.126 ± 0.012 h; under setting [9], 7.29 ± 0.7 h; under setting [10], 5.5 ± 0.17 h; under setting [11], 12.9 ± 1.8 h.
In the case of “MSDMNNPADDNNGAMDDLWAEALSEQKSTSSKSAAETVFQQFGGGDVSGTLQDIDLIMDIPVKLTVELGRTRMTIKELLRLTQGSVVALDGLAGEPLDILINGYLIAQGEVVVVADKYGVRITDIITPSERMRRLSR”, the “total protein half-life in vivo” value by setting is: under setting [12], 5.45 ± 0.45 h; under setting [4], more than 8 h; under setting [5], 2.75 ± 0.5 h; under setting [6], 4.23 ± 0.055 h; under setting [7], 7.08 ± 1.4 h.
Take “MKKLFIQFYLLLFVCFLVMSLLVGLVYKFTAERAGKQSLDDLMNSSLYLMRSELREIPPHDWGKTLKEMDLNLSFDLRVEPLSKYHLDDISMHRLRGGEIVALDDQYTFLQRIPRSHYVLAVGPVPYLYYLHQMRLLDIALIAFIAISLAFPVFIWMRPHWQDMLKLEAAAQRFGDGHLNERIHFDEGSSFERLGVAFNQMADNINALIASKKQLIDGIAHELRTPLVRLRYRLEMSDNLSAAESQALNRDISQLEALIEELLTYARLDRPQNELHLSEPDLPLWLSTHLADIQAVTPDKTVRIKTLVQGHYAALDMRLMERVLDNLLNNALRYCHSTVETSLLLSGNRATLIVEDDGPGIAPENREHIFEPFVRLDPSRDRSTGGCGLGLAIVHSIALAMGGTVNCDTSELGGARFSFSWPLWHNIPQFTSA”: the “total protein half-life in vivo” value by setting is: under setting [2], 6.14 ± 0.51 h; under setting [4], 6.03 ± 0.18 h; under setting [5], 2.755 ± 0.017 h; under setting [6], 6.26 h; under setting [7], 12.5 ± 4.9 h; under setting [8], 6.3 h. For the same sequence, the “total protein half-life in vivo” value by setting is: under setting [9], 10.1 ± 2.2 h; under setting [10], 5.97 ± 0.2 h; under setting [11], 11.4 ± 0.61 h.
Regarding “MKKLILIAIMASGLVACAQSTAPQEDSRLKEAYSACINTAQGSPEKIEACQSVLNVLKKEKQHQQFADQESVRVLDYQQCLRATQTGNDQAVKADCDKVWQEIRSNNK”, the “total protein half-life in vivo” value reads like this: under setting [4], 5.85 h; under setting [7], 9.68 ± 2.6 h; under setting [9], more than 16 h.
“MSQVQSGILPEHCRAAIWIEANVKGEVDALRAASKTFADKLATFEAKFPDAHLGAVVAFGNNTWRALSGGVGAEELKDFPGYGKGLAPTTQFDVLIHILSLRHDVNFSVAQAAMEAFGDCIEVKEEIHGFRWVEERDLSGFVDGTENPAGEETRREVAVIKDGVDAGGSYVFVQRWEHNLKQLNRMSVHDQEMVIGRTKEANEEIDGDERPETSHLTRVDLKEDGKGLKIVRQSLPYGTASGTHGLYFCAYCARLHNIEQQLLSMFGDTDGKRDAMLRFTKPVTGGYYFAPSLDKLMAL”: the “total protein half-life in vivo” value came to 3.34 ± 0.63 h under setting [12]; 3.25 ± 0.84 h under setting [1]; 3.36 ± 0.15 h under setting [2]; 3.73 ± 0.79 h under setting [3]; 3.14 ± 0.27 h under setting [4]; 2.96 ± 0.12 h under setting [5]. Moreover, the “total protein half-life in vivo” value under setting [7] was 8.52 ± 2.9 h; the “total protein half-life in vivo” value under setting [8] was found to be 3.18 ± 0.17 h; the “total protein half-life in vivo” value under setting [9] is 4.17 ± 0.094 h; the “total protein half-life in vivo” value under setting [10] was found to be 5.09 ± 0.12 h; the “total protein half-life in vivo” value under setting [11] is 9.66 ± 0.84 h.
In the case of “MSKSENLYSAARELIPGGVNSPVRAFTGVGGTPLFIEKADGAYLYDVDGKAYIDYVGSWGPMVLGHNHPAIRNAVIEAAERGLSFGAPTEMEVKMAQLVTELVPTMDMVRMVNSGTEATMSAIRLARGFTGRDKIIKFEGCYHGHADCLLVKAGSGALTLGQPNSPGVPADFAKYTLTCTYNDLASVRAAFEQYPQEIACIIVEPVAGNMNCVPPLPEFLPGLRALCDEFGALLIIDEVMTGFRVALAGAQDYYGVVPDLTCLGKIIGGGMPVGAFGGRRDVMDALAPTGPVYQAGTLSGNPIAMAAGFACLNEVAQPGVHETLDELTTRLAEGLLEAAEEAGIPLVVNHVGGMFGIFFTDAESVTCYQDVMACDVERFKRFFHMMLDEGVYLAPSAFEAGFMSVAHSMEDINNTIDAARRVFAKL”, the “total protein half-life in vivo” value turned out to be 6.35 ± 2.3 h under setting [12]; 4.99 ± 0.35 h under setting [1]; 5 ± 0.21 h under setting [2]; 5.33 ± 0.43 h under setting [3]; 3.93 ± 0.1 h under setting [4]; 3.45 ± 0.48 h under setting [5]. Further, the “total protein half-life in vivo” value under setting [6] was determined as 7.43 ± 0.21 h; the “total protein half-life in vivo” value under setting [7] amounted to 11.3 ± 1.3 h; the “total protein half-life in vivo” value under setting [8] worked out at 4.57 ± 0.2 h; the “total protein half-life in vivo” value under setting [9] turned out to be 7.897 ± 0.015 h; the “total protein half-life in vivo” value under setting [10] is 5.51 ± 0.059 h; the “total protein half-life in vivo” value under setting [11] is 12.6 ± 0.035 h.
